In US20230212319A1, “NOVEL ANTIGEN BINDING DOMAINS AND SYNTHETIC ANTIGEN RECEPTORS INCORPORATING THE SAME” (University of Southern California, priority 2020, published 2023):

System: RAJI cells
Test: JNG assay, co-culture with RAJI cells
Assay type: cell-based
Settings: co-culture with RAJI cells
Procedure: Cellular supernatant is collected and assayed for the induction of cytokines (e.g., IL2).
JNG (Jurkat cells expressing EGFP under an NFAT promoter) were infected with lentiviral vectors encoding different single chain and multi-chain SARs by spinfection in the presence of 8 µg/ml of Polybrene® (Sigma, Catalog no. H9268). The Jurkat-NFAT-GFP cells are engineered in such a way that the IL-2 promoter, which carries NFAT binding sites, is cloned upstream of the GFP gene. These cells have been used to study signaling via TCR and CAR. The different SARs were stably expressed in Jurkat NFAT-GFP cells by lentiviral mediated gene transfer, followed by selection with puromycin or blasticidin. No drug selection was used in case the construct lacked an antibiotic resistance gene. The SAR-expressing Jurkat-NFAT-GFP cells were cocultured with the target cells at E:T ratio of approximately 1:2 for approximately 4 hours to 18 hours. When the interaction between SIRs and their target antigen results in activation of the NFAT pathway, GFP expression is induced. […] GFP expression was monitored by FACS analysis. The Jurkat-NFAT-GFP (parental) cells were used as control. The structure of different constructs can be determined based on their names. […] The sequence of the other constructs in the table can be similarly determined from their names and by referring to the different Tables of this disclosure that provide the names and SEQ ID NO of the different modules. Alternatively, the composition and modular architecture of the different SAR constructs can be determined from their sequences by bioinformatics tools, including using nucleic acid and amino acids homology searches. A SAR is considered positive in the assay in case the SAR expressing Jurkat-NFAT-GFP cells show greater % GFP positive cells when cultured with the target cell line as compared to parental Jurkat-NFAT-GFP cells. […] In general, the number +/-, +, 2+, 3+, 4+, 5+ refer to approximately 5%, 10%, 20%, 30%, 40% and 50% GFP positive cells. The % of GFP induction in the above assay is dependent not only the relative strength of the SAR but also, among other factors, on the relative level of expression of the SAR in the JNG cells and the relative level of expression of the target antigen in the target cell line. To control for the difference in gene transduction efficiency of the different SAR constructs, the experiment was conducted with JNG cells transduced with SAR constructs co-expressing a drug resistance gene (e.g., puromycin or PAC) followed by drug selection to generate a stable population of SAR-expressing cells. It is to be noted that the drug resistance gene (e.g., PAC) in the SAR constructs is optional and in vivo studies were conducted with SAR constructs lacking the PAC gene.

B1: CD8SP-CD19-hu-mROO5-1-vL-IgCL-TCRg-6MD-F-P2A-SP-CD19-hu-mROO5-1-vH-hTCR-delta-F-F2A-PAC (protein)
chain: MALPVTALLLPLALLLHAARPDIQMTQSPSSLSASVGDRVTITCKASDHINNWLAWYQQKPGQAPKLLIYGATTLETGVPSRFSGSGSGTDYTLTISSLQPEDFATYYCQQSWNTPWTFGQGTKLEIKRLEGQPKANPTVTLFPPSSEELQANKATLVCLISDFYPGAVTVAWKADGSPVKAGVETTKPSKQSNNKYAASSYLSLTPEQWKSHRSYSCQVTHEGSTVEKTVAPTECSPIKTDVITMDPKDNCSKDANDTLLLQLTNTSAYYMYLLLLLKSVVYFAIITCCLLRRTAFCCNGEKSRAKRSGSGATNFSLLKQAGDVEENPGPTSMDWIWRILFLVGAATGAHSFEQVQLQQPGAELVKPGASVKMSCKASGYAFSSYWINWMKQKPGQGLEWIGQIYPGDGDTNYNGKFKGRATLTADTSSSTAYMQLSSLTSEDSAVYFCARSITTVVGCAMDYWGQGTSVTVSSTRSQPHTKPSVFVMKNGTNVACLVKEFYPKDIRINLVSSKKITEFDPAIVISPSGKYNAVKLGKYEDSNSVTCSVQHDNKTVHSTDFEVKTDSTDHVKPKETENTKQPSKSCHKPKAIVHTEKVNMMSLTVLGLRMLFAKTVAVNFLLTAKLFFLRAKRSGSGVKQTLNFDLLKLAGDVESNPGPSRGHMTEYKPTVRLATRDDVPRAVRTLAAAFADYPATRHTVDPDRHIERVTELQELFLTRVGLDIGKVWVADDGAAVAVWTTPESVEAGAVFAEIGPRMAELSGSRLAAQQQMEGLLAPHRPKEPAWFLATVGVSPDHQGKGLGSAVVLPGVEAAERAGVPAFLETSAPRNLPFYERLGFTVTADVEVPEGPRTWCMTRKPGA
  GFP induction / activity: robust GFP induction

B2: SEQ ID NO: 22252: bispecific SAR on CD19 targeted SIR backbone comprising the receptor binding domain of the ligand 4-1BB (protein)
chain: MALPVTALLLPLALLLHAARPDIQMTQSPSSLSASVGDRVTITCKASDHINNWLAWYQQKPGQAPKLLIYGATTLETGVPSRFSGSGSGTDYTLTISSLQPEDFATYYCQQSWNTPWTFGQGTKLEIKRLEDLKNVFPPEVAVFEPSEAEISHTQKATLVCLATGFYPDHVELSWWVNGKEVHSGVCTDPQPLKEQPALNDSRYCLSSRLRVSATFWQNPRNHFRCQVQFYGLSENDEWTQDRAKPVTQIVSAEAWGRADCGFTSESYQQGVLSATILYEILLGKATLYAVLVSALVLMAMVKRKDSRGRAKRSGSGATNFSLLKQAGDVEENPGPTSATMDWIWRILFLVGAATGAHSGPGLLDLRQGMFAQLVAQNVLLIDGPLSWYSDPGLAGVSLTGGLSYKEDTKELVVAKAGVYYVFFQLELRRVVAGEGSGSVSLALHLQPLRSAAGAAALALTVDLPPASSEARNSAFGFQGRLLHLSAGQRLGVHLHTEARARHAWQLTQGATVLGLFRVTPEIPAGLPSPRSEGSGGGGSGGGGSGGGGSFEQVQLQQPGAELVKPGASVKMSCKASGYAFSSYWINWMKQKPGQGLEWIGQIYPGDGDTNYNGKFKGRATLTADTSSSTAYMQLSSLTSEDSAVYFCARSITTVVGCAMDYWGQGTSVTVSSTRIQNPDPAVYQLRDSKSSDKSVCLFTDFDSQTNVSQSKDSDVYITDKCVLDMRSMDFKSNSAVAWSNKSDFACANAFNNSIIPEDTFFPSPESSCDVKLVEKSFETDTNLNFQNLSVIGFRILLLKVAGFNLLMTLRLWSSRAKRSGSGVKQTLNFDLLKLAGDVESNPGPSRGHMTEYKPTVRLATRDDVPRAVRTLAAAFADYPATRHTVDPDRHIERVTELQELFLTRVGLDIGKVWVADDGAAVAVWTTPESVEAGAVFAEIGPRMAELSGSRLAAQQQMEGLLAPHRPKEPAWFLATVGVSPDHQGKGLGSAVVLPGVEAAERAGVPAFLETSAPRNLPFYERLGFTVTADVEVPEGPRTWCMTRKPGA
  GFP induction / activity: retained the ability to respond

B3: SEQ ID NO: 22253: bispecific SAR on CD19 targeted SIR backbone comprising the receptor binding domain of the ligand APRIL (protein)
chain: MALPVTALLLPLALLLHAARPDIQMTQSPSSLSASVGDRVTITCKASDHINNWLAWYQQKPGQAPKLLIYGATTLETGVPSRFSGSGSGTDYTLTISSLQPEDFATYYCQQSWNTPWTFGQGTKLEIKRLEDLKNVFPPEVAVFEPSEAEISHTQKATLVCLATGFYPDHVELSWWVNGKEVHSGVCTDPQPLKEQPALNDSRYCLSSRLRVSATFWQNPRNHFRCQVQFYGLSENDEWTQDRAKPVTQIVSAEAWGRADCGFTSESYQQGVLSATILYEILLGKATLYAVLVSALVLMAMVKRKDSRGRAKRSGSGATNFSLLKQAGDVEENPGPTSATMDWIWRILFLVGAATGAHSGPVLHLVPINATSKDDSDVTEVMWQPALRRGRGLQAQGYGVRIQDAGVYLLYSQVLFQDVTFTMGQVVSREGQGRQETLFRCIRSMPSHPDRAYNSCYSAGVFHLHQGDILSVIIPRARAKLNLSPHGTFLGFVKLGSGGGGSGGGGSGGGGSFEQVQLQQPGAELVKPGASVKMSCKASGYAFSSYWINWMKQKPGQGLEWIGQIYPGDGDTNYNGKFKGRATLTADTSSSTAYMQLSSLTSEDSAVYFCARSITTVVGCAMDYWGQGTSVTVSSTRIQNPDPAVYQLRDSKSSDKSVCLFTDFDSQTNVSQSKDSDVYITDKCVLDMRSMDFKSNSAVAWSNKSDFACANAFNNSIIPEDTFFPSPESSCDVKLVEKSFETDTNLNFQNLSVIGFRILLLKVAGFNLLMTLRLWSSRAKRSGSGVKQTLNFDLLKLAGDVESNPGPSRGHMTEYKPTVRLATRDDVPRAVRTLAAAFADYPATRHTVDPDRHIERVTELQELFLTRVGLDIGKVWVADDGAAVAVWTTPESVEAGAVFAEIGPRMAELSGSRLAAQQQMEGLLAPHRPKEPAWFLATVGVSPDHQGKGLGSAVVLPGVEAAERAGVPAFLETSAPRNLPFYERLGFTVTADVEVPEGPRTWCMTRKPGA
  GFP induction / activity: retained the ability to respond

B4: CD8SP-BCMA-FHVH-93-G4S-hu-mROO5-vL-[hTCRb-S57C]-F-P2A-IgHSP-CD20-VHH-USC1-2HCD26-G4S-AFP-Va-14-3-AI-[hTCRa-T48C]-F-F2A-PAC (protein)
chain: MALPVTALLLPLALLLHAARPACEVQLLESGGGLIQPGGSLRLSCAASGFTFSSHAMTWVRQAPGKGLEWVSAISGSGDYTHYADSVKGRFTISRDNSKNTVYLQMNSLRAEDSAVYYCAKDEDGGSLLGHRGQGTLVTVSSGTGGGGSGGGGSGGGGSEFDIQMTQSPSSLSASVGDRVTITCKASDHINNWLAWYQQKPGQAPKLLIYGATTLETGVPSRFSGSGSGTDYTLTISSLQPEDFATYYCQQSWNTPWTFGQGTKLEIKRLEDLKNVFPPEVAVFEPSEAEISHTQKATLVCLATGFYPDHVELSWWVNGKEVHSGVCTDPQPLKEQPALNDSRYCLSSRLRVSATFWQNPRNHFRCQVQFYGLSENDEWTQDRAKPVTQIVSAEAWGRADCGFTSESYQQGVLSATILYEILLGKATLYAVLVSALVLMAMVKRKDSRGRAKRSGSGATNFSLLKQAGDVEENPGPTSATMDWIWRILFLVGAATGAHSGPEVQLVESGGGLVQAGGSLRLSCAASGRTFSMGWFRQAPGKEREFVAAITYSGGSPYYADSVKGRFTISRDNAKNTVYLQMNSLKPEDTAVYYCAANPTYGSDWNAENWGQGTQVTVSSGSGGGGSGGGGSGGGGSFEQKEVEQNSGPLSVPEGAIASLNCTYSDRGSQSFFWYRQYSGKSPELIMSIYSNGDKEDGRFTAQLNKASQYVSLLIRDSQPSDSATYLCAVNSQSGVALNFGKGTSLLVTPHIQNPDPAVYQLRDSKSSDKSVCLFTDFDSQTNVSQSKDSDVYITDKCVLDMRSMDFKSNSAVAWSNKSDFACANAFNNSIIPEDTFFPSPESSCDVKLVEKSFETDTNLNFQNLSVIGFRILLLKVAGFNLLMTLRLWSSRAKRSGSGVKQTLNFDLLKLAGDVESNPGPSRGHMTEYKPTVRLATRDDVPRAVRTLAAAFADYPATRHTVDPDRHIERVTELQELFLTRVGLDIGKVWVADDGAAVAVWTTPESVEAGAVFAEIGPRMAELSGSRLAAQQQMEGLLAPHRPKEPAWFLATVGVSPDHQGKGLGSAVVLPGVEAAERAGVPAFLETSAPRNLPFYERLGFTVTADVEVPEGPRTWCMTRKPGA
  GFP induction / activity: robust GFP induction activity
